According to patent US20230192833A1:

Target: human VEGFC (Vascular endothelial growth factor C) (human) (UniProt P49767)
Assay: cell-based or functional assay

B1: 1E9 antibodies (monoclonal anti-VEGFC antibodies of the 1E9 hybridoma) (antibody, V domains shown)
VH: QAQLRQPGAELVKPGASVKLSCKASGYTFISYWMHWVKQRPGQGLEWIGEINPSNGRTNYNEKFKSKATLTVDRSSSTAYMQLSSLTSEDSAVYYCASTSLFYYAMNYWGQGTSVTVSS
VL: DVVMTQTPLSLTVSLGDQASISCRSSQSLVHSNGNTYLHWYLQKPGQSPKLLIYKVFNRLSGVPDRFSGSGSGTDFTLKISRVEAEDLGVYFCSQNTHVPWTFGGGTKLEIK
- decrease in proliferation of cancer cells (MTT assay, A498, 786-O, MDA-MB231, 48 h): 40%
